We go through one compound from US20250186535A1, “OPHTALMIC COMPOSITIONS AND METHODS OF USING SAME” (Tarsier Pharma Ltd., priority 2021, published 2025).

*1 amine or outer side, *2 acyl side, *3 side chain or, on linkers, in order; H or OH if unused. Where a SMILES comes first, the peptide text is derived from it. [ ]: non-standard residue; d: D form. X1 = C[N+](C)(C)CCOP(=O)([O-])Oc1ccc(/N=N/c2cc(C[C@H](N[*:1])C(=O)[*:2])ccc2O)cc1

The data set is described as follows: Solubility of drug substance in water. In kind it is physicochemical. How it is done:
Drug Substance [TRS]: is a trifluoroacetate [TFA] salt of phosphorylcholine-tuftsin conjugate represented by Formula 1, SEQ ID NO: 2 (as shown herein). Molecular formula: C43H68N13013P, Appearance: Yellow to orange solid. Solubility: >40 mg/ml in water.

What is called solubility is the concentration that dissolves in the medium under given conditions. Low values mean a poorly soluble substance, high ones a readily soluble substance. With `C[C@@H](O)[C@H](N)C(=O)N[C@@H](CCCCN)C(=O)N1CCC[C@H]1C(=O)N[C@@H](CCCNC(=N)N)C(=O)NCC(=O)N[C@@H](Cc1ccc(O)c(/N=N/c2ccc(OP(=O)([O-])OCC[N+](C)(C)C)cc2)c1)C(=O)O` [TRS, phosphorylcholine-tuftsin conjugate] (H-TKPRG[X1]-OH), the solubility is more than 40 mg/mL.
